Laboratory results reported in patent publication US7655420B2, “Methods to increase or decrease bone density” (Celltech R & D, Inc., priority 2002, dated 2010).
Entries after “also recorded” stand apart in the source; their conditions may differ.

Legend:
[1] = tested on: hMSC cells; assay: apoptosis of hMSC cells by histone-associated DNA fragmentation ELISA; type: cell-based, human; details: increasing amounts of sclerostin, 24 hrs
Method: (§1) Human mesenchymal (hMSC) cells were plated in Osteoblast-inducing media (Biowhittaker's MSCGM medium supplemented with 100 nM dexamethasone, 50 μg/ml ascorbic acid, and 10 mM β-glycerophosphate) at a density of 10,000 cells/cm^2 in 96-well dishes.
(§2) For apoptosis assays, cells were treated with sclerostin or commercially available preparations of the BMP antagonists noggin, chordin, gremlin or twisted gastrulation (Tsg) for 24 hours prior to assay for caspase activity. In some experiments, cells were treated for various times with a partially purified preparation of baculovirus-expressed human sclerostin (0 to 30 μg/ml) or an equal volume of a protein preparation purified from Sf9 conditioned media (control) in the absence or presence of Calbiochem's caspase inhibitors. Cells were harvested and processed for apoptosis assays using the Homogeneous Caspase ELISA (Roche) or Cell Death (Histone-Associated DNA Fragmentation, Roche).

[2] = tested on: caspase activity in hMSC cells; assay: apoptosis of hMSC cells by caspase activity (Homogeneous Caspase ELISA); type: cell-based, human; details: for time after treatment for which caspase activity remained elevated: hMSC cells treated with sclerostin; for caspase activity: hMSC in osteoblast-inducing media, 20 μg/ml sclerostin or other protein, 24 hours
Method: as §1, §2

[3] = tested on: BMP-6 stimulated alkaline phosphatase activity; assay: BMP-6 stimulated alkaline phosphatase activity in mouse mesenchymal C3H10T1/2 cells; type: cell-based
Method: C3H10T1/2 cells (ATCC Deposit No. CCL-226) were plated in 96-well dishes at a density of 25,000 cells per well in complete growth medium (DMEM with high glucose and glutamine supplemented with 10% FCS, 1% penicillin/streptomycin, 0.1 mM non-essential amino acids, 1 mM sodium pyruvate, 55 μM β-mercaptoethanol, and 20 mM HEPES, pH 7.3). C3H10T1/2 cells were used in a short-term (72 hr) assay to determine the effects of human sclerostin protein on BMP-induced ALP activity. Partially purified preparations of bacculovirus-expressed sclerostin protein were prepared in sterile PBS using NAP-5 columns prior to use. Sclerostin protein (0 to 50 μg/ml) or an equal volume of Sf9 conditioned media (control) was pre-incubated with 500 ng/ml BMP-6 for 1 hr prior to addition to cells. For comparison, similar incubations were carried out with anti-BMP-6 antibody and noggin. Cells were harvested 72 hrs later for determination of ALP activity.
To test the specificity of the sclerostin effect, human sclerostin that was synthesized with a FLAG tag, was pre-incubated for 2 hrs at 4° C. with an anti-FLAG antibody coupled to agarose beads. The mixture was then spun down at 10,000×g for 15 minutes at 4° C. and the supernatant treated as “sclerostin protein” in the above assay.

[4] = tested on: osteoblastic markers; assay: RT-PCR of osteoblastic markers in differentiating hMSC cells treated with sclerostin; type: cell-based, human; details: sclerostin 10 μg/ml, 40 hrs
Method: FIG. 14 illustrates that human sclerostin protein decreases expression of osteoblastic markers in cultures of differentiating hMSC cells. hMSC cells were plated in Osteoblast-Inducing media. After 3 days, partially purified sclerostin protein (10 μg/ml) or proteins purified from Sf9 conditioned media (control) were added. Cells were harvested after 40 hrs and RNA was prepared for RT-PCR analyses of osteoblastic markets.
To determine the effect of sclerostin protein on the expression of osteoblastic markers in cultures of differentiating hMSC cells, RNA was isolated after a 40-hr treatment and analyzed by RT-PCR (FIG. 14).

B1: sclerostin: partially purified baculovirus-expressed human sclerostin protein, SOST gene product (SEQ ID NO:3); also made with a FLAG tag (protein, listed as Homo sapiens)
chain: MQLPLALCLVCLLVHTAFRVVEGQGWQAFKNDATEIIPELGEYPEPPPELENNKTMNRAENGGRPPHHPFETKDVSEYSCRELHFTRYVTDGPCRSAKPVTELVCSGQCGPARLLPNAIGRGKWWRPSGPDFRCIPDRYRAQRVQLLCPGGEAPRARKVRLVASCKCKRLTRFHNQSELKDFGTEAARPQKGRKPRPRARSAKANQAELENAY
modifications: optional FLAG tag
- amounts of histone-DNA fragments [1]: significantly elevated; also recorded: greater amounts of histone-DNA fragments
- time after treatment for which caspase activity remained elevated ([2]; listed as Sclerostin): up to 72 hrs
- time after treatment for which caspase activity remained elevated ([2]; listed as human sclerostin): 72 h
- caspase activity, increasing amounts (dose-dependent) ([2]; hMSC cells, 24 hrs): significantly elevated; also recorded: increased caspase activity
- caspase activity [2]: significantly increased
- caspase activity ([2]; listed as Sclerostin): increased
- stimulatory effect of BMP-6 on alkaline phosphatase activity (antagonism) ([3]; 500 ng/ml BMP-6, 72 hrs): antagonized
- antagonism of BMP-6 after immuno-depletion with anti-Flag M2 antibody/agarose complex ([3]; Flag-tagged sclerostin preparation): completely abolished
- IC50, decrease of BMP-6 stimulated alkaline phosphatase activity ([3]; pre-incubated with 500 ng/ml BMP-6 for 1 hr, 72 hrs): 10 µg/mL
- RNA levels for osteoblast phenotypic markers PTHr, Type I collagen, BMP-2 and BMP-6 [4]: significantly reduced
- RNA levels of markers for adipocytes (PPARγ2) or undifferentiated mesenchymal cells (endoglin) [4]: not affected
